Experimental findings from PMC2700855 (Proteins, 2009) are described below.

For orientation: stoichiometry N means a count of units in the complex or per binding partner. For orientation: Kd means the constant that tells how readily two partners part at equilibrium.

The labels stand for the following.
T1: RFXAP (UniProt O00287 1-272)
T1 sequence (looked up): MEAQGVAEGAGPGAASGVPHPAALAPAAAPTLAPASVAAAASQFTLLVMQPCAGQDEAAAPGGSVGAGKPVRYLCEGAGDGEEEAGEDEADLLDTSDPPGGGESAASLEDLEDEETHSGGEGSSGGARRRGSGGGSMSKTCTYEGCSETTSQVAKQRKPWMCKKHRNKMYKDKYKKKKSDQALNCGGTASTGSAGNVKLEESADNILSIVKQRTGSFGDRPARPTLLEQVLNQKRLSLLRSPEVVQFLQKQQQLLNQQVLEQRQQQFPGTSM

B1: RFX5(25-90) (domain or fragment, UniProt P48382 25-90, looked up)
chain: GEPTTLLQRLRGTISKAVQNKVEGILQDVQKFSDNDKLYLYLQLPSGPTTGDKSSEPSTLSNEEYM
B2: RFX5(187-265) (domain or fragment, UniProt P48382 187-265, looked up)
chain: EMGPEVTPAPRDELVEAACALTCDWAERILKRSFSSIVEVARFLLQQHLISARSAHAHVLKAMGLAEEDEHAPRERSSK
B3: RFXB(88-260) (domain or fragment, UniProt O14593 88-260, looked up)
chain: TLDSLSIHQLAAQGELDQLKEHLRKGDNLVNKPDERGFTPLIWASAFGEIETVRFLLEWGADPHILAKERESALSLASTGGYTDIVGLLLERDVDINIYDWNGGTPLLYAVRGNHVKCVEALLARGADLTTEADSGYTPMDLAVALGYRKVQQVIENHILKLFQSNLVPADPE
B4: RFX5(88-330) (domain or fragment, UniProt P48382 88-330, looked up)
chain: EYMYAYRWIRNHLEEHTDTCLPKQSVYDAYRKYCESLACCRPLSTANFGKIIREIFPDIKARRLGGRGQSKYCYSGIRRKTLVSMPPLPGLDLKGSESPEMGPEVTPAPRDELVEAACALTCDWAERILKRSFSSIVEVARFLLQQHLISARSAHAHVLKAMGLAEEDEHAPRERSSKPKNGLENPEGGAHKKPERLAQPPKDLEARTGAGPLARGERKKSVVESSAPGANNLQVNALVARLP
B5: RFX5(1-330) (domain or fragment, UniProt P48382 1-330, looked up)
chain: MAEDEPDAKSPKTGGRAPPGGAEAGEPTTLLQRLRGTISKAVQNKVEGILQDVQKFSDNDKLYLYLQLPSGPTTGDKSSEPSTLSNEEYMYAYRWIRNHLEEHTDTCLPKQSVYDAYRKYCESLACCRPLSTANFGKIIREIFPDIKARRLGGRGQSKYCYSGIRRKTLVSMPPLPGLDLKGSESPEMGPEVTPAPRDELVEAACALTCDWAERILKRSFSSIVEVARFLLQQHLISARSAHAHVLKAMGLAEEDEHAPRERSSKPKNGLENPEGGAHKKPERLAQPPKDLEARTGAGPLARGERKKSVVESSAPGANNLQVNALVARLP
B6: RFXAP(215-272,F217Y) (domain or fragment, UniProt O00287 215-272, looked up)
chain: GSYGDRPARPTLLEQVLNQKRLSLLRSPEVVQFLQKQQQLLNQQVLEQRQQQFPGTSM
B7: RFX5(1-90) (domain or fragment, UniProt P48382 1-90, looked up)
chain: MAEDEPDAKSPKTGGRAPPGGAEAGEPTTLLQRLRGTISKAVQNKVEGILQDVQKFSDNDKLYLYLQLPSGPTTGDKSSEPSTLSNEEYM
B8: RFXB (natural protein, UniProt O14593 1-260, looked up)
chain: MELTQPAEDLIQTQQTPASELGDPEDPGEEAADGSDTVVLSLFPCTPEPVNPEPDASVSSPQAGSSLKHSTTLTNRQRGNEVSALPATLDSLSIHQLAAQGELDQLKEHLRKGDNLVNKPDERGFTPLIWASAFGEIETVRFLLEWGADPHILAKERESALSLASTGGYTDIVGLLLERDVDINIYDWNGGTPLLYAVRGNHVKCVEALLARGADLTTEADSGYTPMDLAVALGYRKVQQVIENHILKLFQSNLVPADPE

Data set [1] concerns the molecule itself. As to the kind of experiment: cross-linking.
For the data set “RFXAP(215-272,F217Y)”, the target named is B6. As to the kind of experiment: SEC-MALS. In general terms: SEC sorts molecules by how far they enter the pores of the column.
Data set [2] concerns the molecule itself. As to the kind of experiment: cross-linking. The source holds these as a separate data set.
The data set “SEC-MALS” concerns the molecule itself. The experiment in a line: SEC-MALS.
The data set “RFX5(88-330)” deals with B4. As to the kind of experiment: SEC.
For data set [3], the target named is RFX5(25-90)2•RFXAP(215-272) complex (UniProt P48382). As to the kind of experiment: ITC. (In general: In ITC the heat of successive injections is recorded.)
Data set [4] shares this target. The experiment in a line: SEC-MALS. The note with it: scale: RFXB(88-260) per RFX5(25-90)2•RFXAP(215-272).
For the data set “RFXB”, the target named is B8. The experiment in a line: SEC.
The data set “SEC” deals with the molecule itself. As to the kind of experiment: SEC.
For the data set “RFX5(25-90)”, the target named is B1. As to the kind of experiment: SEC.
The data set “RFXB(88-260)” addresses B3. As to the kind of experiment: SEC-MALS.
The target in a further data set is T1, RFXAP. The experiment in a line: SEC.
For the data set “RFX5(1-330)”, the target named is B5. The experiment in a line: SEC.

B1: the “stoichiometry N” value in the data set “cross-linking [1]” was 4; with RFXAP(215-272,F217Y), 2 RFX5(25-90) per RFXAP(215-272); in the data set “cross-linking [2]” it was 2.

For B2, the “stoichiometry N” value in “SEC-MALS” was determined as 2.

On to B3, for which, in the data set with RFX5(88-330), the binding result is listed as “binds”. Besides, in [3], the Kd came out at 75.5 nM and the stoichiometry N was found to be 1.02. In [4], this molecule came in with a stoichiometry N of 1.

As to B4, the binding result with RFXB is recorded as “binds”.

Consider B5, for which, in the data set “SEC”, the “stoichiometry N” value came out at 2.

Take B6: the binding result with RFX5(25-90) and with RFXB(88-260) was “binds” throughout.

As for B7, the binding result in the data set with RFXAP is recorded as “binds”.

Consider B8, for which the binding result in the data set with RFX5(1-330) and with RFXAP was “binds” in each case.
